According to the RNAGym collection of RNA variant scans (doi:10.1101/gr.219683.116):

B1: mRNA-splicing (parent)
chain: AGUUGCUGCUGGGAGCUCCAGCACAGUGAAAUGGACAGAAGGGCAGAGCAA

Variants of: B1
Test: exon inclusion enrichment index; higher = more inclusion; WT1 exon 5 minigene, HEK293

Row | Variant | exon inclusion enrichment index
1 | C6A U7A C9A U10A A39U A40G | 0.0729
2 | U3A U4C C6A U7C C9A U10C | 4.11
3 | G5A C6G U7G C9A U27G G28C | 0.00084
4 | U4G G5U U7C G8A U10C | 2.16
5 | C6A U7C C9A U10C C44G A45G | 1.29
6 | G5U G8U C9U G34U A35U | 0.0186
7 | G5U G8U C9U G34U A35C | 0.0387
8 | G5A C6G U7G C9A | 0.00225
9 | C6A U7C C9A G11C | 2.88
10 | C6A U7C C9A G11U | 2.1
11 | C6A U7A C9A U10A U32C G33U | 0.476
12 | G5A U7C G8A C9A U10G | 0.509
13 | G5C C6G U7C G8C C9G U10C | 3.59
14 | G5A C6U U7A G8U C9A A30C A31G | 0.168
15 | G5A C6U U7A G8U C9A A40G | 0.0627
16 | G5C C6G U7C U10C A37G G38C | 3.22
17 | G5A C6U U7A G8U C9A G28C | 0.0466
18 | C6A U7C C9A U10C G11A G12C | 2.2
19 | C6A U7C C9A U10C G11A G12U | 1.87
20 | G5A C6U U7A G8U C9A A39G A40U | 0.00682
21 | G5A C6G U7G C9A G26C U27G | 0.0205
22 | G5U G8U C9U A30U A31G | 0.15
23 | C6A U7C C9A U10C A20C G21U | 2.72
24 | G5A C6G U7G C9A G15A C16A | 0.000736

Row | Variant | exon inclusion enrichment index
25 | A20C G21C | 0.634
26 | C6A U7A C9A U10A G11A | 1.96
27 | G5A U7C G8A U10C C19G | 1.88
28 | G5A C6G U7G C9A U27C G28U | 0.00816
29 | G28C A29C | 0.118
30 | A25G G26U | 0.326
31 | A25G G26C | 0.272
32 | G5C C6U G8C C9U U10C A14C G15C | 0.406
33 | G5C C6U G8C C9U U10C C44U A45C | 2.63
34 | G5A C6G U7G C9A G42A | 0.025
35 | G5A C6U U7A G8U C9A G34C A35U | 0.0109
36 | C6A U7C C9A U10C C36G A37G | 1.36
37 | G5A C6G U7G C9A C24A A25U | 0.00166
38 | G5C C6G U7C U10C G11A G12C | 1.51
39 | G5C C6G U7C U10C G11A G12A | 1.91
40 | C6A U7A C9A U10A G42C | 1.99
41 | G5A C6U U7A G8U C9U | 0.0721
42 | G5A C6G U7G C9A C44G A45G | 0.00929
43 | G5C C6U G8C C9U U10C A35U | 0.452
44 | C6A U7A C9A U10A G26C | 1.1
45 | G5U G8U C9U G46A A47G | 0.0611
46 | C24A | 0.223
47 | G5A C6U U7A G8U C9A G42U G43U | 0.23
48 | G5C C6A U7C G8A U10A G38U A39U | 0.00131

Row | Variant | exon inclusion enrichment index
49 | G5A C6G U7G C9A G33C G34C | 0.0007
50 | C6A U7A C9A U10A C19A A20U | 0.195
51 | C6A U7A C9A U10A C44A A45U | 1.71
52 | C6A U7A C9A U10A C44A A45G | 1.09
53 | C19A | 1.49
54 | G21A C22U | 1.19
55 | G5U G8U C9A U10C | 0.61
56 | G5C C6A U7C G8A U10A A45U G46C | 0.0541
57 | G5A C6G U7G C9A A39G A40U | 0.00199
58 | G5C C6U G8C C9U U10C U27A G28U | 0.824
59 | C6A U7C C9A U10C A39U A40G | 1.39
60 | G5C C6A U7C G8A U10A G13C A14G | 0.278
61 | U3C U4A C6A U7C C9A U10C | 2.21
62 | C6A U7C C9A U10C A23G C24U | 1.95
63 | G2U U3A G5C C6A U7C G8A U10A | 0.383
64 | C6A U7G G8A C9A U10C | 0.734
65 | G46A A47C | 0.547
66 | G5U G8U C9U G28U A29G | 0.118
67 | G5U G8U C9U G28U A29U | 0.0195
68 | G41C G42C | 0.703
69 | G2U U3C | 0.216
70 | G48A | 0.46
71 | C6A U7C C9A U10C G28C A29C | 2.62
72 | G5C C6U G8C C9U U10C C19A A20U | 0.553

Row | Variant | exon inclusion enrichment index
73 | G5C C6U G8C C9U U10C C19A A20C | 0.813
74 | C6A U7C C9A U10C G42U G43C | 2.05
75 | G5C C6A U7C G8A U10A G26U U27A | 0.0285
76 | A39C A40U | 0.0469
77 | G2U G5U G8U C9U | 0.329
78 | C16U U17G | 0.211
79 | G5U G8U C9U U32G G33C | 0.0926
80 | G28U | 0.0227
81 | G5U G8U C9U U17C C18U | 0.0755
82 | G5U G8U C9U G15C C16G | 0.179
83 | C6A U7A C9A U10A G42C G43A | 1.78
84 | A30U A31G | 0.155
85 | G26C U27C | 0.584
86 | C36A A37C | 0.209
87 | G5A U7C G8A U10C G13C A14U | 1.45
88 | G5U G8U C9U G41A G42A | 0.107
89 | G13U A14C | 0.0646
90 | G5C C6A U7C G8A U10A C36A A37C | 0.146
91 | G5A U7C G8A U10C A35G C36A | 1.29
92 | C6A U7C C9A U10C A47U G48A | 2.69
93 | G41U G42A | 0.0358
94 | G5U G8U C9U G11A | 0.0224
95 | C16A | 0.0656
96 | G5C C6G U7C U10C C16G U17G | 1.27

Row | Variant | exon inclusion enrichment index
97 | G5U G8U C9U G38U A39U | 0.00101
98 | G5C C6U G8C C9U U10C C16A U17G | 1.15
99 | G5A C6A U7A C9A U10A | 0.214
100 | G5A C6U U7A G8U C9A A30U | 0.0249
101 | G5C C6U G8C C9U U10C U17C C18U | 1.9
102 | G5C C6A U7C G8A U10A G13A A14G | 0.424
103 | G5A C6G U7G C9A A37U G38C | 0.00236
104 | C24A A25C | 0.728
105 | C6A U7A C9A U10A A45C G46U | 0.191
106 | G5A C6G U7A G8A C9A | 0.0263
107 | G5C C6U G8U U10C | 1.11
108 | G5A C6U U7A G8U C9A U10C G11U | 0.148
109 | G5A C6G U7G C9A C18G C19G | 0.0012
110 | G5C C6U G8C C9G U10A | 3.12
111 | G5A U7C G8A U10C G46U | 1.6
112 | C6A U7C C9A U10C G34A | 2.27
113 | G5C C6U G8C C9U U10C G41C G42C | 2.99
114 | G5C C6U G8C C9U U10C G38A | 1.01
115 | G5C C6U G8C C9U U10C U17A | 1.95
116 | C6A U7C C9A U10C G21C C22A | 3.4
117 | G2C U3C C6A U7C C9A U10C | 2.79
118 | G5A C6U U7G G8A C9A | 0.546
119 | G5C C6G U7C U10C G12C | 0.252
120 | G5C C6U G8C C9U U10C G42C G43A | 2.79

Row | Variant | exon inclusion enrichment index
121 | G5A C6G U7G C9A G46U A47U | 0.00177
122 | G38C A39G | 0.21
123 | C6A U7A C9A U10A A14U G15A | 0.217
124 | G5C C6A U7C G8A U10A A35C C36A | 0.0377
125 | A23U | 0.475
126 | G5A C6G U7G C9A G48A | 0.000556
127 | C6A U7C C9A U10C C16G U17G | 0.621
128 | G5C C6U G8C C9U U10C A45U G46U | 0.648
129 | G5U G8U C9U G12U G13U | 0.000363
130 | G5A C6U U7A G8U C9A C44A | 0.286
131 | C6A U7A C9A U10A C24U A25G | 1.3
132 | G5A U7C C9A | 2.07
133 | G5C C6U G8C C9U U10C A29U A30U | 0.629
134 | C6A U7A C9A U10A A35C | 0.237
135 | G5C C6G U7C U10C A14C | 1.99
136 | G5C C6A U7C G8A U10A G26U | 0.091
137 | C6A U7A C9A U10A G21U C22G | 0.565
138 | G5A U7C G8A U10C C36U A37G | 2.16
139 | G5C C6U G8C C9U U10C A31C U32C | 3.49
140 | G5U U7A C9U | 0.173
141 | G5C C6U G8C C9U U10C A47C | 2.38
142 | G5U G8U C9U C19G | 0.0649
143 | G5U G8U C9U G12C G13A | 0.0253
144 | C6A U7C C9A U10A G11U | 2.49

Row | Variant | exon inclusion enrichment index
145 | C6A U7C C9A U10C C16G | 2.49
146 | G5A C6G U7G C9A U32C G33A | 0.00102
147 | G5C C6U G8C C9U U10C G12A G13A | 0.681
148 | G5A U7C G8A U10C G43U C44U | 0.735
149 | G5C C6G U7C U10C A39G A40C | 3.86
150 | G5C C6G U7C U10C G28A A29U | 1.28
151 | G5C C6G U7C U10C G28A A29C | 2.29
152 | C6A U7A C9A U10A C22A A23G | 0.734
153 | G5C C6U G8C C9A U10C | 2.36
154 | G5C C6A U7C G8A U10A C36U A37C | 0.0938
155 | G5C C6A U7C G8A U10A C36U A37G | 0.111
156 | U4G C6G U7G C9A | 0.0187
157 | G5A C6G U7G C9A C44U A45C | 0.00286
158 | G5A C6U U7A G8U C9A A30G A31U | 0.0123
159 | G11A | 0.618
160 | G5U G8U C9U A31G | 0.187
161 | G5A U7C G8A U10C A20C G21A | 0.984
162 | G5A C6G U7G U10G | 0.0189
163 | G5C C6G U7C U10C A35G C36U | 0.0687
164 | G5C C6G U7C U10C A35G C36A | 2.07
165 | G5A C6U | 0.0142
166 | G5A C6G U7G C9A A30U A31G | 0.000854
167 | G5A C6G U7G C9A C24U A25G | 0.00148
